Sequences and labels used below:
B1: Microphthalmia-associated transcription factor (Homo sapiens), O75030 (parent)
chain: MQSESGIVPDFEVGEEFHEEPKTYYELKSQPLKSSSSAEHPGASKPPISSSSMTSRILLRQQLMREQMQEQERREQQQKLQAAQFMQQRVPVSQTPAINVSVPTTLPSATQVPMEVLKVQTHLENPTKYHIQQAQRQQVKQYLSTTLANKHANQVLSLPCPNQPGDHVMPPVPGSSAPNSPMAMLTLNSNCEKEGFYKFEEQNRAESECPGMNTHSRASCMQMDDVIDDIISLESSYNEEILGLMDPALQMANTLPVSGNLIDLYGNQGLPPPGLTISNSCPANLPNIKRELTACIFPTESEARALAKERQKKDNHNLIERRRRFNINDRIKELGTLIPKSNDPDMRWNKGTILKASVDYIRKLQREQQRAKELENRQKKLEHANRHLLLRIQELEMQARAHGLSLIPSTGLCSPDLVNRIIKQEPVLENCSQDLLQHHADLTCTTTLDLTDGTITFNNNLGTGTEANQAYSVPTKMGSKLEDILMDDTLSPVGVTDPLLSSVSPGASKTSSRRSSMSMEETEHTC

The first experiment covers variants of B1. To be noted: with tfeb_human TFEB.
As to MQSESGIVPDFEVGEEFHEEPKTYYELKSQPLKSSSSAEHPGASKPPISSSSMTSRILLRQQLMREQMQEQERREQQQKLQAAQFMQQRVPVSQTPAINVSVPTTLPSATQVPMEVLKVQTHLENPTKYHIQQAQRQQVKQYLSTTLANKHANQVLSLPCPNQPGDHVMPPVPGSSAPNSPMAMLTLNSNCEKEGFYKFEEQNRAESECPGMNTHSRASCMQMDDVIDDIISLESSYNEEILGLMDPALQMANTLPVSGNLIDLYGNQGLPPPGLTISNSCPANLPNIRRELTACIFPTESEARALAKERQKKDNHNLIERRRRFNINDRIKELGTLIPKSNDPDMRWNKGTILKASVDYIRKLQREQQRAKELENRQKKLEHANRHLLLRIQELEMQARAHGLSLIPSTGLCSPDLVNRIIRQEPVLENCSQDLLQHHADLTCTTTLDLTDGTITFNNNLGTGTEANQAYSVPTKMGSKLEDILMDDTLSPVGVTDPLLSSVSPGASKTSSRRSSMSMEETEHTC [K289R;K423R], the “effect of a mutation on the interaction” value is given as “with no effect”.

Variants of B1 are the subject of another experiment. To be noted: with tfe3_human TFE3, P19532.
Chain of tfe3_human TFE3, P19532 (P19532 whole entry): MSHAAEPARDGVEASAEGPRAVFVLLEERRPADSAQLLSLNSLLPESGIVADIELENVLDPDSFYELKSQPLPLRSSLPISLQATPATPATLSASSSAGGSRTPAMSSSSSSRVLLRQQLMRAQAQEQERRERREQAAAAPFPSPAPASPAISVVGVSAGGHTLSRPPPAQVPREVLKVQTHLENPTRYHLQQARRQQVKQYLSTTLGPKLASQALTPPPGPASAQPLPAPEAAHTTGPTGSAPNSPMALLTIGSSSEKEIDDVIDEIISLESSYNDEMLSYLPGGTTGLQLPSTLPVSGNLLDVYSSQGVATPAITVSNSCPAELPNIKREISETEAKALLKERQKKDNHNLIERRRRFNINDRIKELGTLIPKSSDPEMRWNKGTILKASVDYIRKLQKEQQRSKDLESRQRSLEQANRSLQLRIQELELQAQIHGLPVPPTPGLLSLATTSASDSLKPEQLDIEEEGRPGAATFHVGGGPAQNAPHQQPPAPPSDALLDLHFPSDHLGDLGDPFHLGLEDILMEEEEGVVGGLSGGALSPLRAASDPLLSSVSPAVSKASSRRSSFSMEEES
As to MQSESGIVPDFEVGEEFHEEPKTYYELKSQPLKSSSSAEHPGASKPPISSSSMTSRILLRQQLMREQMQEQERREQQQKLQAAQFMQQRVPVSQTPAINVSVPTTLPSATQVPMEVLKVQTHLENPTKYHIQQAQRQQVKQYLSTTLANKHANQVLSLPCPNQPGDHVMPPVPGSSAPNSPMAMLTLNSNCEKEGFYKFEEQNRAESECPGMNTHSRASCMQMDDVIDDIISLESSYNEEILGLMDPALQMANTLPVSGNLIDLYGNQGLPPPGLTISNSCPANLPNIRRELTACIFPTESEARALAKERQKKDNHNLIERRRRFNINDRIKELGTLIPKSNDPDMRWNKGTILKASVDYIRKLQREQQRAKELENRQKKLEHANRHLLLRIQELEMQARAHGLSLIPSTGLCSPDLVNRIIRQEPVLENCSQDLLQHHADLTCTTTLDLTDGTITFNNNLGTGTEANQAYSVPTKMGSKLEDILMDDTLSPVGVTDPLLSSVSPGASKTSSRRSSMSMEETEHTC [K289R;K423R], the “effect of a mutation on the interaction” value is “with no effect”.

(Values after IntAct's records for PubMed 15507434.)
